In ChEMBL document CHEMBL2074015, “Effect of ionization on the variable uptake of valacyclovir via the human intestinal peptide transporter (hPepT1) in CHO cells” (Biopharm Drug Dispos, 2000):

Legend:
Details in all cases: CHO
[1] = substrate: CC(C)[C@H](N)C(=O)OCCOCn1cnc2c(=O)nc(N)[nH]c21
Description: TP_TRANSPORTER: uptake (pH 7.9) in PEPT1-expressing CHO cells

[2] = substrate: CC(C)[C@H](N)C(=O)OCCOCn1cnc2c(=O)nc(N)[nH]c21; remark: listed apart in the source
Description: TP_TRANSPORTER: uptake (pH 7.5) in PEPT1-expressing CHO cells

[3] = substrate: CC(C)[C@H](N)C(=O)OCCOCn1cnc2c(=O)nc(N)[nH]c21; remark: listed apart in the source
Description: TP_TRANSPORTER: uptake (pH 6.8) in PEPT1-expressing CHO cells

[4] = substrate: CC(C)[C@H](N)C(=O)OCCOCn1cnc2c(=O)nc(N)[nH]c21; remark: listed apart in the source
Description: TP_TRANSPORTER: uptake (pH 6.2) in PEPT1-expressing CHO cells

[5] = substrate: CC(C)[C@H](N)C(=O)OCCOCn1cnc2c(=O)nc(N)[nH]c21; remark: listed apart in the source
Description: TP_TRANSPORTER: uptake (pH 5.5) in PEPT1-expressing CHO cells

B1: Solute carrier family 15 member 1 (Homo sapiens), P46059 (protein)
chain: MGMSKSHSFFGYPLSIFFIVVNEFCERFSYYGMRAILILYFTNFISWDDNLSTAIYHTFVALCYLTPILGALIADSWLGKFKTIVSLSIVYTIGQAVTSVSSINDLTDHNHDGTPDSLPVHVVLSLIGLALIALGTGGIKPCVSAFGGDQFEEGQEKQRNRFFSIFYLAINAGSLLSTIITPMLRVQQCGIHSKQACYPLAFGVPAALMAVALIVFVLGSGMYKKFKPQGNIMGKVAKCIGFAIKNRFRHRSKAFPKREHWLDWAKEKYDERLISQIKMVTRVMFLYIPLPMFWALFDQQGSRWTLQATTMSGKIGALEIQPDQMQTVNAILIVIMVPIFDAVLYPLIAKCGFNFTSLKKMAVGMVLASMAFVVAAIVQVEIDKTLPVFPKGNEVQIKVLNIGNNTMNISLPGEMVTLGPMSQTNAFMTFDVNKLTRINISSPGSPVTAVTDDFKQGQRHTLLVWAPNHYQVVKDGLNQKPEKGENGIRFVNTFNELITITMSGKVYANISSYNASTYQFFPSGIKGFTISSTEIPPQCQPNFNTFYLEFGSAYTYIVQRKNDSCPEVKVFEDISANTVNMALQIPQYFLLTCGEVVFSVTGLEFSYSQAPSNMKSVLQAGWLLTVAVGNIIVLIVAGAGQFSKQWAEYILFAALLLVVCVIFAIMARFYTYINPAEIEAQFDEDEKKNRLEKSNPYFMSGANSQKQM
B1 was tested, and the Km [1] was 2.2 mM, the Km [2] was 2.7 mM and the Km [3] was 5.4 mM. For the same protein, the Km [4] was 6.6 mM and the Km [5] was 7.4 mM.
